Here are results for two proteins from article PMC11330527, “Structure and dimerization properties of the plant-specific copper chaperone CCH” (Scientific Reports, 2024).

Data set [1] deals with the molecule itself. In words: MST; both copies in the apo (copper-free) state; Alexa Fluor 488-labeled chaperone 20 nM, unlabeled chaperone 4.6 to 400 nM; 300 mM NaCl, 50 mM HEPES, 0.05% Tween-20, pH 7.5, no DTT; room temperature; one-site binding model; apparent KD; dimer to monomers.
Data set [2] deals with the molecule itself. The data set can be described thus: MST; only one copy preloaded with copper (CCH: labeled copy copper-loaded, unlabeled copper-free; CCHΔ: unlabeled copy copper-loaded, labeled copper-free); labeled chaperone 20 nM, unlabeled 0.4 to 6.25 µM; 300 mM NaCl, 50 mM HEPES, 0.05% Tween-20, pH 7.5; room temperature; one-site binding model; apparent KD; dimer to monomers.

B1: copper chaperone CCH (full-length CCH) from Arabidopsis (natural protein, Arabidopsis thaliana, UniProt O82089 1-120, looked up)
chain: MAQTVVLKVGMSCQGCVGAVNRVLGKMEGVESFDIDIKEQKVTVKGNVEPEAVFQTVSKTGKKTSYWPVEAEAEPKAEADPKVETVTETKTEAETKTEAKVDAKADVEPKAAEAETKPSQ
modifications: Alexa Fluor 488 NHS ester on amines (only the labeled copy in MST)
notes: Used copper-free (apo) or preloaded with Cu(I) from Cu(I)-(BCA)2; A TEV site follows the His-tag; Vector pETEV16b-CCH; also called apo-CCH; Cu(I)-CCH; source: E. coli, purified (IMAC, TEV digestion, SEC); not shown: 10xHis, N-terminal, cleaved
Take B1: the Kd turned out to be 18 ± 6 nM in data set [1] and 78 ± 39 nM in data set [2].

B2: CCHΔ, truncation mutant of CCH lacking the C-terminal extension (domain or fragment, Arabidopsis thaliana, UniProt O82089 1-70, looked up)
chain: MAQTVVLKVGMSCQGCVGAVNRVLGKMEGVESFDIDIKEQKVTVKGNVEPEAVFQTVSKTGKKTSYWPVE
modifications: also: Alexa Fluor 488 NHS ester on amines (labeled copy only)
notes: Used copper-free (apo) or preloaded with Cu(I) from Cu(I)-(BCA)2; A TEV site follows the His-tag; source: E. coli, purified (IMAC, TEV digestion, SEC); not shown: 10xHis, N-terminal, cleaved
As for B2, the Kd in data set [1] turned out to be 57 ± 9 nM; in data set [2], 169 ± 51 nM.
